From patent US20260209387A1, “SINGLE-DOMAIN ANTIBODY FOR INHIBITION OF NEUTROPHIL ELASTASE ACTIVITY” (UNIVERSITE DE LIEGE, priority 2023, published 2026)

Tests used:
[1] = target: T1, hNE (Homo sapiens, UniProt P08246); test: Affinity of NbE201 for hNE by BLI; format: binding
T1 construct: purchased Elastin Products Company (EPC)
T1 sequence (P08246 30-247): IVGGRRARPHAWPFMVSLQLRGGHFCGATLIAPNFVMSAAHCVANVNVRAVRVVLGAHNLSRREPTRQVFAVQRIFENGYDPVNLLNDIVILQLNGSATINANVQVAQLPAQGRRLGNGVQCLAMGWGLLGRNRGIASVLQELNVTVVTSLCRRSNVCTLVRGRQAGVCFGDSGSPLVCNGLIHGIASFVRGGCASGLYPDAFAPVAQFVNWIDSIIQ
Method: The affinity of NbE201 for hNE and mNE was measured by BLI with the Octet HTX machine using various settings. […] For hNE, the biotinylated NbE201 (0.5 μg·mL^−1) was immobilized on streptavidin biosensors (SA, Sartorius) following the provider's indications. Then, the biosensors were immersed in a solution of hNE at different concentrations (25-6.25-3.125-1.5163-0.753 nM). Association and dissociation kinetics were measured for 180 s and 300 s respectively, in 10×KB buffer. All the experiments were carried out at 30° C. in 96-wells or 384-wells black-bottom microplates in polypropylene (Greiner Bio-One, Belgium) and with orbital agitation (1500 rpm). The sensorgrams obtained were fitted globally to a 1:1 model to derive the rate constants for association (kon) and dissociation (koff) and the equilibrium dissociation constant (KD=koff/kon). […] were carried out. The error on KD was calculated using the following equation: […]

[2] = target: T1, hNE; test: hNE inhibition, hydrolysis of chromogenic substrate N-Succinyl-Ala-Ala-Ala-paraNitroAnilide; format: biochemical; conditions: hNE vs mNE
Method: Inhibition of the hydrolysis of a chromogenic substrate. […] Briefly, hNE (Elastin products company, EPC, United States) was resuspended at 1 mg·mL^−1 in 50 mM sodium acetate buffer pH 5 containing 100 mM NaCl and stored at 4° C. The substrate Succinyl-Ala-Ala-Ala-paraNitroAnilide was dissolved at 1 mM in 0.1 M Tris pH 7.5 with NaCl 0.5 M and NaN3 0.01% (% w/v) and stored at 4° C. 230 μl of substrate (1 mM) were mixed with 10 μl of Bovine Serum Albumin 9 μM (BSA, Sigma-Aldrich, Germany) and incubated 20 min at 25° C. in a clear flat bottom 96-well plate (Greiner Bio-One, Belgium). […] The absorbance at 410 nm was measured every min for 60 minutes in a SpectraMax M2e Microplates Reader (Molecular Devices, California, USA). The initial velocity determined in the presence of the ISVD at different Nb: hNE ratios was compared to that measured in the absence of the ISVD, to determine the residual activity. […]
The absorbance at 410 nm was measured every min for 60 minutes. The initial velocity determined in the presence of the inhibitor at different inhibitor: hNE ratios was compared to that measured in the absence of the inhibitor, to determine the residual activity. […] The hNE activity was monitored at 410 nm for 10 minutes using the spectrophotometer Specord 50 Plus (Analytik Jena) and data were collected with the WinAspectPlus software. […]

[3] = target: T1, hNE; test: Competitive binding by BLI with AAT, EI3 and Nb-H7S-Nter-P1
Method: The biotinylated NbE201 (10 μg/ml in KB buffer) was immobilized on streptavidin biosensors (SA, Sartorius) following the provider's indications. A biosensor quenching step with biocytin 1 μg/mL was performed. […] The association was measured for 280 s in kinetic buffer (KB buffer, Sartorius). The experiments were carried out at 30° C. in 384-wells black-bottom microplates in polypropylene (Greiner Bio-One, Belgium) and with agitation (1000 rpm).

[4] = target: T2, human cathepsin G (hCG) (Homo sapiens, UniProt P08311); test: hCG inhibition, substrate N-Succinyl-Ala-Ala-Pro-Phe p-nitroanilide; format: biochemical; conditions: chromogenic substrate
T2 construct: purchased Calbiochem
T2 sequence (P08311 21-244): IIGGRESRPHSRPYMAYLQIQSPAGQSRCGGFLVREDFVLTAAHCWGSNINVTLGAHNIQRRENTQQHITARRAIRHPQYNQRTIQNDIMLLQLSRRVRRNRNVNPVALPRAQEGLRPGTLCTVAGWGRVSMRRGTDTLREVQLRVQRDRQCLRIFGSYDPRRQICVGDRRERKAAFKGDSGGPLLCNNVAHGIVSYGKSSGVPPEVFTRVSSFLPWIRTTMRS
Text: To determine whether NbE201 was specific for hNE, we first investigated its ability to inhibit several serine proteases: pancreatic elastase from pork (pPE, 39.2% sequence identity, from Sigma), mice neutrophil elastase (mNE, 74.9% sequence identity, from EPC) and with two other human serine proteases present in the lung: proteinase 3 (hPR3 from EPC, 54.7% sequence identity) and cathepsin G (hCG from Calbiochem, 36.7% sequence identity). The substrate used were Succinyl-Ala-Ala-Ala-paraNitroAnilide (1 mM in 0.1 M Tris pH 7.5 with NaCl 0.5 M and NaN3 0.01%, % w/v from Sigma-Aldrich) for pPE, MeOSuc-Ala-Ala-Pro-Val-AMC (100 μM in Tris 50 mM, NaCl 1 M, 0.05% (% w/v) Brij-35, pH 7.5) for mNE, N-Succinyl-Ala-Ala-Pro-Phe p-nitroanilide (0.45 mM in 100 mM HEPES pH 7.5, from Sigma Aldrich) for hCG and Boc-Ala-Ala-Nva-SBzl (0.22 mM in 100 mM MOPS pH 5.0 0.5 M NaCl, 100 μM DTNB, DMSO 10%, from EPC) for PR3. mNE (rmELA2 from R&D systems, United Kingdom) was first activated according to the supplier information. In brief, mNE was incubated with recombinant mouse active cathepsin C/DPPIy (rmCathepsin C from R&D systems) in MES 50 mM, NaCl 50 mM, pH 5.5 for 2 h at 37° C. The enzyme concentration in the assay was 6 nM, 14.7 nM, 25 nM, 5 nM for PPE, mNE, hCG and hPR3, respectively. Different molar ratios of NbE201: Enzyme were tested. […]

B1: NbE201: anti-hNE ISVD (VHH/nanobody) from immunized lama, amino acid sequence SEQ ID NO: 4 (protein)
VHH: QVQLQESGGGLVQAGGSLRLSCVVPGRTISLYRMGWFRQAPGKEREFVAGINWSGDMTDYVDSVKGRFTISRDNAKNTVYLEMNSLKPEDTAIYYCTADPKLLPLADSSYGYWGQGTQVTVSS
affinity for hNE relative to mNE ([1]; hNE vs mNE): about 10 times | koff ([1]; hNE, BLI): 3.2 ± 0.2 · 10^−3 s^−1 | kon ([1]; hNE, BLI): 2.6 ± 0.9 · 10^6 M^−1 s^−1 | inhibitory activity to hNE relative to mNE [2]: about 10 times | binding of hNE in complex with AAT to immobilized NbE201 ([3]; hNE 250 nM pre-incubated with AAT 1.5 μM): does not bind to NbE201 | binding of hNE pre-incubated with EI3 (MeOSuc-AAPV-CMK) to immobilized NbE201 ([3]; hNE 250 nM, EI3 15 μM): unable to bind to NbE201 | binding of hNE pre-incubated with cAb-H7S-Nter-P1 to immobilized NbE201 ([3]; hNE 250 nM, cAb-H7S-Nter-P1 1.5 μM): unable to bind to NbE201 | inhibition of human cathepsin G [4]: does not inhibit
